B1: C2CD2L (parent)
chain: EPAGSLRELGVWRSLLRLRATRAG
B2: TOR1AIP2 (parent)
chain: DGAGRTWQDSDTVKLLVDLELSYG
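Note: lentivirally expressed fusions sorted by FACS into six bins by GFP to DsRed ratio, PSI derived from sequencing read proportions per bin multiplied by bin number.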

Variants of: B1
Assay: protein stability index of a GFP-peptide fusion (GPS, HEK-293T) (PSI 1-6); higher = more stable
Conditions: c terminus: a fixed tail appended
Variant EPAGSIRELGVWRSLLRLRATRAG [L6I] has a protein stability index of 2.2. With EPAGSLKELGVWRSLLRLRATRAG [R7K] the protein stability index was 2.07. EPAGSLREMGVWRSLLRLRATRAG [L9M] showed a protein stability index of 2.07. Work on EPALSLRELGVWRSLLRLRATRAG [G4L] yielded a protein stability index of 1.97. EPAPSLRELGVWRSLLRLRATRAG [G4P] showed a protein stability index of 3.02. Variant EPAFSLRELGVWRSLLRLRATRAG [G4F] has a protein stability index of 2.49. In the case of EPAGSLRELGVWRSLLRLRATRQG [A23Q], the protein stability index is reported as 2.23. Variant EPAGSLRELGVWRSLLRLRQTRAG [A20Q] has a protein stability index of 2.04. Work on EPAGSLRELGVWRSLLRLRATRAI [G24I] yielded a protein stability index of 1.97. In the case of EPAGSLRELGVWRSLLRLRATRAC [G24C], the protein stability index is reported as 2.99. EPAGSLREPGVWRSLLRLRATRAG [L9P] showed a protein stability index of 3.7. With EPAGSLRELGVWRSLLRLRATSAG [R22S] the protein stability index was 2.23. Variant EPAGSLRELGIWRSLLRLRATRAG [V11I] has a protein stability index of 2.5. For EPAGSLRETGVWRSLLRLRATRAG [L9T], the protein stability index was 2.92. Work on EPAESLRELGVWRSLLRLRATRAG [G4E] yielded a protein stability index of 3.52. Variant EPAGSTRELGVWRSLLRLRATRAG [L6T] has a protein stability index of 2.83. Variant EPAGSLRELGVWRSQLRLRATRAG [L15Q] has a protein stability index of 3.84. With EPAGSLRMLGVWRSLLRLRATRAG [E8M] the protein stability index was 1.73. With EPAGSLRELGVWRSLLRLRATHAG [R22H] the protein stability index was 2.01. For EPAGSLRELGVWQSLLRLRATRAG [R13Q], the protein stability index was 2.56. Variant EPAGSLRELGVWRSLLRLRLTRAG [A20L] has a protein stability index of 2.58. Variant EPAGSLRELGVWRSLLRLRATRHG [A23H] has a protein stability index of 2.05. Work on EPAGSLRPLGVWRSLLRLRATRAG [E8P] yielded a protein stability index of 2.93. For EPAGSLRELGVWRSLLRLRATRFG [A23F], the protein stability index was 1.07. EPAGELRELGVWRSLLRLRATRAG [S5E] showed a protein stability index of 3.05. In the case of EPAGSLRELGVWRSLLRLRATRKG [A23K], the protein stability index is reported as 2.94. EPAGSLRELGVWRSNLRLRATRAG [L15N] gave a protein stability index of 3.47. EPAGSLRELGVWRSLLRLRATEAG [R22E] gave a protein stability index of 2.25. With EPAGSLRELGVWRSLLRLRAIRAG [T21I] the protein stability index was 2.84. In the case of EPAQSLRELGVWRSLLRLRATRAG [G4Q], the protein stability index is reported as 3.42. EPAGSLRELGVWRSLLRLRATRYG [A23Y] gave a protein stability index of 2.75. For EPAGSLRELGVWDSLLRLRATRAG [R13D], the protein stability index was 2.62. Variant EPAGSLRELGVWRSLLALRATRAG [R17A] has a protein stability index of 2.91. With EPIGSLRELGVWRSLLRLRATRAG [A3I] the protein stability index was 2.84. EPAYSLRELGVWRSLLRLRATRAG [G4Y] showed a protein stability index of 3.48. With EPAGSLRELGVWRSLLRLRALRAG [T21L] the protein stability index was 2.12. For EPAGSLRELGVWRALLRLRATRAG [S14A], the protein stability index was 1.66. EPAGSLRELGDWRSLLRLRATRAG [V11D] showed a protein stability index of 3.74. In the case of EPAGSLRELLVWRSLLRLRATRAG [G10L], the protein stability index is reported as 2.02. Work on EPAGSLRELGKWRSLLRLRATRAG [V11K] yielded a protein stability index of 3.37. Work on EPAGSMRELGVWRSLLRLRATRAG [L6M] yielded a protein stability index of 2.45. For EVAGSLRELGVWRSLLRLRATRAG [P2V], the protein stability index was 1.82. With NPAGSLRELGVWRSLLRLRATRAG [E1N] the protein stability index was 2.09. For EPAGSLRELGVWRSLLSLRATRAG [R17S], the protein stability index was 3.04. Work on EPAGSLRELGVWRSLLRLRATDAG [R22D] yielded a protein stability index of 2.3. Work on EPAGSLRELGVWRSELRLRATRAG [L15E] yielded a protein stability index of 4.27. EPAGSWRELGVWRSLLRLRATRAG [L6W] gave a protein stability index of 2.39. EPAGSLRELGVCRSLLRLRATRAG [W12C] showed a protein stability index of 3.48. EPAGSLRELGVWRSPLRLRATRAG [L15P] gave a protein stability index of 3.76. With EPAGSLAELGVWRSLLRLRATRAG [R7A] the protein stability index was 3.16. For EPAGSLGELGVWRSLLRLRATRAG [R7G], the protein stability index was 3.07. In the case of EPAGSLRELGVWRSLLRLRACRAG [T21C], the protein stability index is reported as 2.07. EPAGSLREQGVWRSLLRLRATRAG [L9Q] gave a protein stability index of 2.77. Work on EPAGSLRELGVWRSLLRLRATRPG [A23P] yielded a protein stability index of 2.47. For EPAGSLRNLGVWRSLLRLRATRAG [E8N], the protein stability index was 3. For EPAGSLRELGVWRSLLDLRATRAG [R17D], the protein stability index was 3.73. For EPAGSLRELGVWRSLLRLRATYAG [R22Y], the protein stability index was 1.34. In the case of EPAGSARELGVWRSLLRLRATRAG [L6A], the protein stability index is reported as 3.35. For EPAGSLRELGVWRSLLRLRATRAP [G24P], the protein stability index was 1.96.

Variants of: B2
Assay: as above
Conditions: c terminus: a fixed tail appended
For EGAGRTWQDSDTVKLLVDLELSYG [D1E], the protein stability index was 1.69. Variant GGAGRTWQDSDTVKLLVDLELSYG [D1G] has a protein stability index of 1.68. Variant HGAGRTWQDSDTVKLLVDLELSYG [D1H] has a protein stability index of 2.29. With KGAGRTWQDSDTVKLLVDLELSYG [D1K] the protein stability index was 4.34. In the case of NGAGRTWQDSDTVKLLVDLELSYG [D1N], the protein stability index is reported as 1.32. In the case of QGAGRTWQDSDTVKLLVDLELSYG [D1Q], the protein stability index is reported as 1.53. TGAGRTWQDSDTVKLLVDLELSYG [D1T] gave a protein stability index of 3.05. For WGAGRTWQDSDTVKLLVDLELSYG [D1W], the protein stability index was 2.93. With DAAGRTWQDSDTVKLLVDLELSYG [G2A] the protein stability index was 2.29. DCAGRTWQDSDTVKLLVDLELSYG [G2C] gave a protein stability index of 3.68. In the case of DDAGRTWQDSDTVKLLVDLELSYG [G2D], the protein stability index is reported as 2.53. With DEAGRTWQDSDTVKLLVDLELSYG [G2E] the protein stability index was 1.91. In the case of DHAGRTWQDSDTVKLLVDLELSYG [G2H], the protein stability index is reported as 1.07. In the case of DIAGRTWQDSDTVKLLVDLELSYG [G2I], the protein stability index is reported as 1.28. For DKAGRTWQDSDTVKLLVDLELSYG [G2K], the protein stability index was 3.03. With DLAGRTWQDSDTVKLLVDLELSYG [G2L] the protein stability index was 1.74. Variant DNAGRTWQDSDTVKLLVDLELSYG [G2N] has a protein stability index of 2.01. DPAGRTWQDSDTVKLLVDLELSYG [G2P] gave a protein stability index of 2.31. DQAGRTWQDSDTVKLLVDLELSYG [G2Q] showed a protein stability index of 2.69. With DRAGRTWQDSDTVKLLVDLELSYG [G2R] the protein stability index was 2.06. In the case of DSAGRTWQDSDTVKLLVDLELSYG [G2S], the protein stability index is reported as 1.84. In the case of DTAGRTWQDSDTVKLLVDLELSYG [G2T], the protein stability index is reported as 4.39. With DVAGRTWQDSDTVKLLVDLELSYG [G2V] the protein stability index was 1.39. Variant DYAGRTWQDSDTVKLLVDLELSYG [G2Y] has a protein stability index of 2.53. DGCGRTWQDSDTVKLLVDLELSYG [A3C] gave a protein stability index of 2.55. With DGDGRTWQDSDTVKLLVDLELSYG [A3D] the protein stability index was 1.53. DGEGRTWQDSDTVKLLVDLELSYG [A3E] showed a protein stability index of 1.81. For DGHGRTWQDSDTVKLLVDLELSYG [A3H], the protein stability index was 1.39. With DGIGRTWQDSDTVKLLVDLELSYG [A3I] the protein stability index was 1.09. Variant DGKGRTWQDSDTVKLLVDLELSYG [A3K] has a protein stability index of 1.65. For DGMGRTWQDSDTVKLLVDLELSYG [A3M], the protein stability index was 2.51. DGNGRTWQDSDTVKLLVDLELSYG [A3N] showed a protein stability index of 1.73. Variant DGPGRTWQDSDTVKLLVDLELSYG [A3P] has a protein stability index of 1.13. DGRGRTWQDSDTVKLLVDLELSYG [A3R] showed a protein stability index of 1.79. DGSGRTWQDSDTVKLLVDLELSYG [A3S] gave a protein stability index of 1.4.

Reference: the supplement of paper PMC10567573
